The source of these data is US20240400717A1, “Antibody Binding to CHI3L1 for Treating Cancer” (National Cheng Kung University, priority 2021, published 2024).

B1: #293R3-5: fully human anti-CHI3L1 mAb, Table 1 No. 5; heavy chain SEQ ID NO: 81, light chain SEQ ID NO: 82 (antibody, listed as Homo sapiens)
VH: EVQLVQSGAGVKKPGATVKISCKVSGYTFTDYYMHWVQQAPGKGLEWMGLVDPEDGETIYAEKFQGRVTITADTSTDTAYMELSSLRSEDTAVYYCATASPREEMPYYFDYWGQGTLVTVSS
light: SYELTQPPSVSVSPGQTASITCSGDILADQYASWYQQKPGQSPVLVIYHDTKRPSGVPERFSGSTSGNTATLTISGTQAMDEAAYYCQAWDINTAWVFGGGTQLTVLGQPKAAPSVTLFPPSSEELQANKATLVCLISDFYPGAVTVAWKADSSPVKAGVETTTPSKQSNNKYAASSYLSLTPEQWKSHRSYSCQVTHEGSTVEKTVAPTECS
B2: #R4-63: fully human anti-CHI3L1 mAb, Table 1 No. 38; heavy chain SEQ ID NO: 49, light chain SEQ ID NO: 50 (antibody, listed as Homo sapiens)
VH: EVQLVQSGAEVKKPGATVKISCKVSGYTFTDYYMHWVQQAPGKGLEWMGLVDPEDGETIYAEKFQGRVTITADTSTDTAYMELSSLRSEDTAVYYCATIGRPPDYWGQGTTVTVSS
light: QSVLTQPPSVSAAPGQKVTISCSGSSSNIGNNYVSWYQQLPGTAPKLLIYDNNKRPSGIPDRFSGSKSGTSATLGITGLQTGDEADYYCGTWDSSLSVWVFGGGTKLTVLGQPKAAPSVTLFPPSSEELQANKATLVCLISDFYPGAVTVAWKADSSPVKAGVETTTPSKQSNNKYAASSYLSLTPEQWKSHKSYSCQVTHEGSTVEKTVAPTECS
B3: #R4-53: fully human anti-CHI3L1 mAb, Table 1 No. 33; heavy chain SEQ ID NO: 25, light chain SEQ ID NO: 26 (antibody, listed as Homo sapiens)
VH: QVQLVQSGAEVKKPGASVKVSCKASGYTFTSYYMHWVRQAPGQGLEWMGIINPSGGSTSYAQKFQGRVTMTRDTSTSTVYMELSSLRSEDTAVYYCASDIGDYGDYWGQGTTVTVSS
light: SYVLTQPPSVSVALGQTARITCGGNNIESKIVSWYQQKPGQAPVLVIFYDTDRPSGISERFSGSNSGNTATLTISRVEAGDEADYYCQVWDSNSDHVIFGGGTKLTVLGQPKAAPSVTLFPPSSEELQANKATLVCLISDFYPGAVTVAWKADSSPVKAGVETTTPSKQSNNKYAASSYLSLTPEQWKSHRSYSCQVTHEGSTVEKTVAPTECS
B4: #R4-2: fully human anti-CHI3L1 mAb, Table 1 No. 7; heavy chain SEQ ID NO: 1, light chain SEQ ID NO: 2 (antibody, listed as Homo sapiens)
heavy: QVQLVQSGAEVKKPGSSVKVSCKASGGTFSSYAISWVRQAPGQGLEWMGGIIPIFGTANYAQKFQGRVTITADESTSTAYMELSSLRSEDTAVYYCARGDIEYYDILTGYYYYFDYWGQGTLVTVSS
light: SYVLTQPPSVSVAPGKAARVTCGGNDIGSKSVQWYQQKPGQAPVLVISYDNDRPSGIPERFSGSNSGNTATLTISRVEAGDEADYYCQVWDSTSDHYVFGTGTKVTVQGQPKANPTVTLFPPSSEELQANKATLVCLISDFYPGAVTVAWKADSSPVKAGVETTTPSKQSNNKYAASSYLSLTPEQWKSHRSYSCQVTHEGSTVEKTVAPTECS
B5: #R4-62: fully human anti-CHI3L1 mAb, Table 1 No. 37; heavy chain SEQ ID NO: 41, light chain SEQ ID NO: 42 (antibody, listed as Homo sapiens)
VH: EVQLVESGGGLVQPGGSLRLSCAASGLTFPNFAMTWVRQTPGKGLQWVSTISGRGDEPFYADSVKGRFTISRDNSKNMVYLHMNSLRAEDTAIYYCAKGGHFSSWDYWGQGTLVTVSS
light: NFMLTQPHSVSESPGKTVTISCTRSSGSIASNYVQWYQQRPDSAPTTVIYEDIERPSGVPDRFSGAIDSSANSASLTISGLQTEDEADYYCQSYDSSSYVFGTGTKVTVLGQPKANPTVTLFPPSSEELQANKATLVCLISDFYPGAVTVAWKADGSPVKAGVETTKPSKQSNNKYAASSYLSLTPEQWKSHRSYSCQVTHEGSTVEKTVAPTECS

The assay deals with T1, CHI3L1 binding to IL-13Rα2 on A549 cell line (Homo sapiens, UniProt P36222).
T1 construct: host or cells: A549 cells carry the receptor
T1 sequence (P36222 22-383): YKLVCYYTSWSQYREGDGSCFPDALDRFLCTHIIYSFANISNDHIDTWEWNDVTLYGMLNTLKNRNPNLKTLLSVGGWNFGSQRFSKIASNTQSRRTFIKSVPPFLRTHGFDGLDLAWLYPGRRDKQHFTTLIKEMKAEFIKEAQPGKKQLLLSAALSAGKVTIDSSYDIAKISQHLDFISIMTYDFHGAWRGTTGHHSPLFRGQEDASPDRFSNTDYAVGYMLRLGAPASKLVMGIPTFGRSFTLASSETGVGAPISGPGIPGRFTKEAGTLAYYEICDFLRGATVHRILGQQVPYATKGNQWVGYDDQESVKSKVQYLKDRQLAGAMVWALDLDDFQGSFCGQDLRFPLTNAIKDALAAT
The assay can be described thus: Functional screen: block of CHI3L1 binding to IL-13Rα2 on A549 cell line. It counts as cell-based. Particulars: A549 cells, compared with CHI3L1 only. An excerpt:
CHI3L1 is known to associate with different receptors, such as IL-13Rα2 (He et al. 2013), CRTH2 (Zhou et al. 2015), TMEM219 (Lee et al. 2016), and galectin-3 (Zhou et al. 2015). […] Therefore, purified antibody leads were functionally screened for their ability to block CHI3L1 binding to IL-13Rα2 on A549 cell line (FIG. 3A). […] The sequences and defied CDR regions among those monoclonal antibodies are listed and summarized in the sequences list (SEQ ID NOs: 1 to 88) and Table 2, respectively. Anti-CHI3L1 clone R4-2 heavy chain (SEQ ID NO: 1), anti-CHI3L1 clone R4-2 light chain (SEQ ID NO: 2), anti-CHI3L1 clone R4-4 heavy chain (SEQ ID NO: 9), anti-CHI3L1 clone R4-4 light chain (SEQ ID NO: 10), anti-CHI3L1 clone R4-39 heavy chain (SEQ ID NO: 17), anti-CHI3L1 clone R4-39 light chain (SEQ ID NO: 18), anti-CHI3L1 clone R4-53 heavy chain (SEQ ID NO: 25), anti-CHI3L1 clone R4-53 light chain (SEQ ID NO: 26), anti-CHI3L1 clone R4-54 heavy chain (SEQ ID NO: 33), anti-CHI3L1 clone R4-54 light chain (SEQ ID NO: 34), anti-CHI3L1 clone R4-62 heavy chain (SEQ ID NO: 41), anti-CHI3L1 clone R4-62 light chain (SEQ ID NO: 42), anti-CHI3L1 clone R4-63 heavy chain (SEQ ID NO: 49), anti-CHI3L1 clone R4-63 light chain (SEQ ID NO: 50), anti-CHI3L1 clone R4-93 heavy chain (SEQ ID NO: 57), anti-CHI3L1 clone R4-93 light chain (SEQ ID NO: 58), anti-CHI3L1 clone 293R3-2 heavy chain (SEQ ID NO: 65), anti-CHI3L1 clone 293R3-2 light chain (SEQ ID NO: 66), anti-CHI3L1 clone 293R3-4 heavy chain (SEQ ID NO: 73), anti-CHI3L1 clone 293R3-4 light chain (SEQ ID NO: 74), anti-CHI3L1 clone 293R3-5 heavy chain (SEQ ID NO: 81), and anti-CHI3L1 clone 293R3-5 light chain (SEQ ID NO: 82) are shown in sequence listing.
Turning to B1, the CHI3L1 neutralizing activity result was “best neutralizing activity”. The entry for B2 is “best neutralizing activity”. On to B3, for which the CHI3L1 neutralizing activity entry is given as “best neutralizing activity”.

As for B4, the CHI3L1 neutralizing activity result is on record as “best neutralizing activity”. Next, B5: “best neutralizing activity”.
